Measurements published in patent publication US20240409621A1 (XIAMEN UNIVERSITY, published 2024).

B1: monoclonal antibody 7G5 (antibody, V domains shown)
VH: QVQLKESGPGLVAPSQSLSITCTVSGFSLSSYGVHWIRQPPGKGLEWLGVIWAGGSTNYNSALMSRLSISEDNSKSQVFLKMNSLQTDDTAVYYCARKGLVWPAMDYWGQGTSVTVSQ
VL: DIQMTQTTSSLSASLGDRVTISCRASQDISHYLNWYQQKPDGTVKLLIYYTSRLHSGVPSRFSGSGSGTDYSLTIYNLEQEDIATYFCQQGNTLPWTFGGGTKLEIK
B2: monoclonal antibody 5B11 (antibody, V domains shown)
VH: QIQLVQSGPELKKPGETVKISCKASGYTFTDYSMHWLKQAPGKGLKWMGWITTETGEPTYADDFKGRFAFSLETSASTAYLQINNLKNEDTGIYFCARYYYGPFYWGQGTLVTVST
VL: DIQMTQSPASLSASVGETVTITCRSSGNIHNFLTWYQQKQGKSPQFLVYNAKTLADGVSSRFSGSGSGTQFSLKINSLQPEDFGIYYCQHFWTTPYTFGGGTKLEIK
B3: monoclonal antibody 6B2 (antibody, V domains shown)
VH: EVQLQQSRPELVKPGASVKISCKASGYSFTAYFMNWVKQSHGKSLEWIGRINPYIGDTFYNQKFKGKATLTVDKSSNTAHMELLSLTSEDSAVYYCGRSEYGNYYFDYWGQGTTLTVSQ
VL: ENVLTQSPAIMSASLGEKVTMSCRASSSVNYMYWYQQKSDASPKLWIYYTSNLAPGVPARFSGSGSGNSYSLTISSMEGEDAATYYCQQFTSSPLTFGAGTKLELK

Experiments:
Test in all cases: cell-based or functional assay
[1] = target: T1, F protein of RSV A2 (on the virus in the neutralization assay) (respiratory syncytial virus, A2 strain, UniProt P03420 26-574)
[2] = target: T1, F protein of RSV A2 (on the virus in …); remark: listed apart in the source
[3] = target: F protein of RSV type B strain 18537 (on the virus in the neutralization assay) (respiratory syncytial virus type B, …, UniProt P13843 26-574)

Binder	IC50 of each RSV neutralizing antibody, RSV A2 [1]	neutralizing ability against RSV A2, relative to 1129 [2]	neutralizing ability against 18537, relative to 1129 [3]
B1	0.0316 µg/mL	–	–
B2	0.0074 µg/mL	50 times	~10 times
B3	0.0949 µg/mL	–	–
